Source: patent publication US20230220042A1 (SHANGHAI JIAO TONG UNIVERSITY SCHOOL OF MEDICINE, published 2023)

T1: Biotin-FcγRIIB (human, UniProt P31994 43-217, limits assumed, biotin label)
T1 construct: Soluble labelled protein used to stain and sort the display cells; also called human FcγRIIB; CD32b
T1 sequence (looked up): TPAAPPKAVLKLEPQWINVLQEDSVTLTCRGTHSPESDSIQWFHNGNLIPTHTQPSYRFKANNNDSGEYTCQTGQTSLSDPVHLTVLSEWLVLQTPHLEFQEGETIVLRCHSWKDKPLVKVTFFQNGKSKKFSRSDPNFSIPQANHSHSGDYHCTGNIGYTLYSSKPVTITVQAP

T2: Biotin-FcγRIIB (human FcγRIIB, Sino Biological) (human, UniProt P31994 43-217, limits assumed, biotin-labeled)
T2 construct: Used at 1 µg/ml with Streptavidin-APC for flow cytometry and sorting; also called CD32b
T2 sequence (looked up): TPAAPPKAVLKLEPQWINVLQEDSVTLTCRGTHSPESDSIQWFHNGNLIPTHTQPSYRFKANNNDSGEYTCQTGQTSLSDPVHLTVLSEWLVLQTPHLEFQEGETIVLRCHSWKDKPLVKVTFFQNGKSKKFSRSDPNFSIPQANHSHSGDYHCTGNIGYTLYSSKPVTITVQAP


target: T1, Biotin-FcγRIIB; test: NGS of 3T3 display library Cmix flow-sorted for FcγRIIB binding

Binder | enrichment factor, percentage after 2nd sorting/percentage after 1st sorting | enrichment factor, percentage after 3rd sorting/percentage after 2nd sorting | percentage after 1st sorting | percentage after 2nd sorting | percentage after 3rd sorting
human IgG2 anti-mouse CD40 surface displayed antibody, S267V/S298G/L328W (antibody, name in EU numbering, As m1 with the Fc mutations) light chain (with the P2A rest): DTVLTQSPALAVSPGERVTISCRASDSVSTLMHWYQQKPGQQPKLLIYLASHLESGVPARFSGSGSGTDFTLTIDPVEADDTATYYCQQSWNDPWTFGGGTKLELKRTVAAPSVFIFPPSDEQLKSGTASVVCLLNNFYPREAKVQWKVDNALQSGNSQESVTEQDSKDSTYSLSSTLTLSKADYEKHKVYACEVTHQGLSSPVTKSFNRGECGSGATNFSLLKQAGDVEENPG heavy chain: EVQLVESDGGLVQPGRSLKLPCAASGFTFSDYYMAWVRQAPTKGLEWVASISYDGSSTYYRDSVKGRFTISRDNAKSTLYLQMDSLRSEDTATYYCGRHSSYFDYWGQGVMVTVSSASTKGPSVFPLAPCSRSTSESTAALGCLVKDYFPEPVTVSWNSGALTSGVHTFPAVLQSSGLYSLSSVVTVPSSNFGTQTYTCNVDHKPSNTKVDKTVERKCCVECPPCPAPPVAGPSVFLFPPKPKDTLMISRTPEVTCVVVDVVHEDPEVQFNWYVDGVEVHNAKTKPREEQFNGTFRVVSVLTVVHQDWLNGKEYKCKVSNKGWPAPIEKTISKTKGQPREPQVYTLPPSREEMTKNQVSLTCLVKGFYPSDIAVEWESNGQPENNYKTTPPMLDSDGSFFLYSKLTVDKSRWQQGNVFSCSVMHEALHNHYTQKSLSLSPGKLEPPPSTVSNMATVAVLVVLGAAIVTGAVVAFVMKMRRRNTGGKGGDYALAPGSQTSDLSLPDCKVMVHDPHSLA | 47.4 ratio | 5.76 ratio | 0% | 0.03% | 0.19%
human IgG2 anti-mouse CD40 surface displayed antibody, S239V/V266L/S298L/L328W (antibody, name in EU numbering, As m1 with the Fc mutations) light chain (with the P2A rest): DTVLTQSPALAVSPGERVTISCRASDSVSTLMHWYQQKPGQQPKLLIYLASHLESGVPARFSGSGSGTDFTLTIDPVEADDTATYYCQQSWNDPWTFGGGTKLELKRTVAAPSVFIFPPSDEQLKSGTASVVCLLNNFYPREAKVQWKVDNALQSGNSQESVTEQDSKDSTYSLSSTLTLSKADYEKHKVYACEVTHQGLSSPVTKSFNRGECGSGATNFSLLKQAGDVEENPG heavy chain: EVQLVESDGGLVQPGRSLKLPCAASGFTFSDYYMAWVRQAPTKGLEWVASISYDGSSTYYRDSVKGRFTISRDNAKSTLYLQMDSLRSEDTATYYCGRHSSYFDYWGQGVMVTVSSASTKGPSVFPLAPCSRSTSESTAALGCLVKDYFPEPVTVSWNSGALTSGVHTFPAVLQSSGLYSLSSVVTVPSSNFGTQTYTCNVDHKPSNTKVDKTVERKCCVECPPCPAPPVAGPVVFLFPPKPKDTLMISRTPEVTCVVVDLSHEDPEVQFNWYVDGVEVHNAKTKPREEQFNLTFRVVSVLTVVHQDWLNGKEYKCKVSNKGWPAPIEKTISKTKGQPREPQVYTLPPSREEMTKNQVSLTCLVKGFYPSDIAVEWESNGQPENNYKTTPPMLDSDGSFFLYSKLTVDKSRWQQGNVFSCSVMHEALHNHYTQKSLSLSPGKLEPPPSTVSNMATVAVLVVLGAAIVTGAVVAFVMKMRRRNTGGKGGDYALAPGSQTSDLSLPDCKVMVHDPHSLA | 39.1 ratio | 5.02 ratio | 0% | 0.07% | 0.33%
human IgG2 anti-mouse CD40 surface displayed antibody, H268D/S298L/L328W (antibody, name in EU numbering, As m1 with the Fc mutations) light chain (with the P2A rest): DTVLTQSPALAVSPGERVTISCRASDSVSTLMHWYQQKPGQQPKLLIYLASHLESGVPARFSGSGSGTDFTLTIDPVEADDTATYYCQQSWNDPWTFGGGTKLELKRTVAAPSVFIFPPSDEQLKSGTASVVCLLNNFYPREAKVQWKVDNALQSGNSQESVTEQDSKDSTYSLSSTLTLSKADYEKHKVYACEVTHQGLSSPVTKSFNRGECGSGATNFSLLKQAGDVEENPG heavy chain: EVQLVESDGGLVQPGRSLKLPCAASGFTFSDYYMAWVRQAPTKGLEWVASISYDGSSTYYRDSVKGRFTISRDNAKSTLYLQMDSLRSEDTATYYCGRHSSYFDYWGQGVMVTVSSASTKGPSVFPLAPCSRSTSESTAALGCLVKDYFPEPVTVSWNSGALTSGVHTFPAVLQSSGLYSLSSVVTVPSSNFGTQTYTCNVDHKPSNTKVDKTVERKCCVECPPCPAPPVAGPSVFLFPPKPKDTLMISRTPEVTCVVVDVSDEDPEVQFNWYVDGVEVHNAKTKPREEQFNLTFRVVSVLTVVHQDWLNGKEYKCKVSNKGWPAPIEKTISKTKGQPREPQVYTLPPSREEMTKNQVSLTCLVKGFYPSDIAVEWESNGQPENNYKTTPPMLDSDGSFFLYSKLTVDKSRWQQGNVFSCSVMHEALHNHYTQKSLSLSPGKLEPPPSTVSNMATVAVLVVLGAAIVTGAVVAFVMKMRRRNTGGKGGDYALAPGSQTSDLSLPDCKVMVHDPHSLA | 44 ratio | 5.95 ratio | 0% | 0.21% | 1.25%

target: T2, Biotin-FcγRIIB (human FcγRIIB, Sino …); test: NGS after FACS sort of 3T3-displayed Library2 for biotin-FcγRIIB binding

Binder | Enrichment factor (percentage after sorting/percentage before sorting) | Increased factor (enrichment factor/wild-type enrichment factor)
human IgG2 anti-mouse CD40 surface displayed antibody, S267Q (antibody, name in EU numbering, m1 with this Fc mutation (Eu numbering); copies: 2 + 2) light chain (with the P2A rest): DTVLTQSPALAVSPGERVTISCRASDSVSTLMHWYQQKPGQQPKLLIYLASHLESGVPARFSGSGSGTDFTLTIDPVEADDTATYYCQQSWNDPWTFGGGTKLELKRTVAAPSVFIFPPSDEQLKSGTASVVCLLNNFYPREAKVQWKVDNALQSGNSQESVTEQDSKDSTYSLSSTLTLSKADYEKHKVYACEVTHQGLSSPVTKSFNRGECGSGATNFSLLKQAGDVEENPG heavy chain: EVQLVESDGGLVQPGRSLKLPCAASGFTFSDYYMAWVRQAPTKGLEWVASISYDGSSTYYRDSVKGRFTISRDNAKSTLYLQMDSLRSEDTATYYCGRHSSYFDYWGQGVMVTVSSASTKGPSVFPLAPCSRSTSESTAALGCLVKDYFPEPVTVSWNSGALTSGVHTFPAVLQSSGLYSLSSVVTVPSSNFGTQTYTCNVDHKPSNTKVDKTVERKCCVECPPCPAPPVAGPSVFLFPPKPKDTLMISRTPEVTCVVVDVQHEDPEVQFNWYVDGVEVHNAKTKPREEQFNSTFRVVSVLTVVHQDWLNGKEYKCKVSNKGLPAPIEKTISKTKGQPREPQVYTLPPSREEMTKNQVSLTCLVKGFYPSDIAVEWESNGQPENNYKTTPPMLDSDGSFFLYSKLTVDKSRWQQGNVFSCSVMHEALHNHYTQKSLSLSPGKLEPPPSTVSNMATVAVLVVLGAAIVTGAVVAFVMKMRRRNTGGKGGDYALAPGSQTSDLSLPDCKVMVHDPHSLA | 8.64 | 15.1
human IgG2 anti-mouse CD40 surface displayed antibody, V266G/P271C (antibody, name in EU numbering, m1 with these Fc mutations (Eu numbering); copies: 2 + 2) light chain (with the P2A rest): DTVLTQSPALAVSPGERVTISCRASDSVSTLMHWYQQKPGQQPKLLIYLASHLESGVPARFSGSGSGTDFTLTIDPVEADDTATYYCQQSWNDPWTFGGGTKLELKRTVAAPSVFIFPPSDEQLKSGTASVVCLLNNFYPREAKVQWKVDNALQSGNSQESVTEQDSKDSTYSLSSTLTLSKADYEKHKVYACEVTHQGLSSPVTKSFNRGECGSGATNFSLLKQAGDVEENPG heavy chain: EVQLVESDGGLVQPGRSLKLPCAASGFTFSDYYMAWVRQAPTKGLEWVASISYDGSSTYYRDSVKGRFTISRDNAKSTLYLQMDSLRSEDTATYYCGRHSSYFDYWGQGVMVTVSSASTKGPSVFPLAPCSRSTSESTAALGCLVKDYFPEPVTVSWNSGALTSGVHTFPAVLQSSGLYSLSSVVTVPSSNFGTQTYTCNVDHKPSNTKVDKTVERKCCVECPPCPAPPVAGPSVFLFPPKPKDTLMISRTPEVTCVVVDGSHEDCEVQFNWYVDGVEVHNAKTKPREEQFNSTFRVVSVLTVVHQDWLNGKEYKCKVSNKGLPAPIEKTISKTKGQPREPQVYTLPPSREEMTKNQVSLTCLVKGFYPSDIAVEWESNGQPENNYKTTPPMLDSDGSFFLYSKLTVDKSRWQQGNVFSCSVMHEALHNHYTQKSLSLSPGKLEPPPSTVSNMATVAVLVVLGAAIVTGAVVAFVMKMRRRNTGGKGGDYALAPGSQTSDLSLPDCKVMVHDPHSLA | 3.83 | 6.68
human IgG2 anti-mouse CD40 surface displayed antibody, V266A/P271C (antibody, name in EU numbering, m1 with these Fc mutations (Eu numbering); copies: 2 + 2) light chain (with the P2A rest): DTVLTQSPALAVSPGERVTISCRASDSVSTLMHWYQQKPGQQPKLLIYLASHLESGVPARFSGSGSGTDFTLTIDPVEADDTATYYCQQSWNDPWTFGGGTKLELKRTVAAPSVFIFPPSDEQLKSGTASVVCLLNNFYPREAKVQWKVDNALQSGNSQESVTEQDSKDSTYSLSSTLTLSKADYEKHKVYACEVTHQGLSSPVTKSFNRGECGSGATNFSLLKQAGDVEENPG heavy chain: EVQLVESDGGLVQPGRSLKLPCAASGFTFSDYYMAWVRQAPTKGLEWVASISYDGSSTYYRDSVKGRFTISRDNAKSTLYLQMDSLRSEDTATYYCGRHSSYFDYWGQGVMVTVSSASTKGPSVFPLAPCSRSTSESTAALGCLVKDYFPEPVTVSWNSGALTSGVHTFPAVLQSSGLYSLSSVVTVPSSNFGTQTYTCNVDHKPSNTKVDKTVERKCCVECPPCPAPPVAGPSVFLFPPKPKDTLMISRTPEVTCVVVDASHEDCEVQFNWYVDGVEVHNAKTKPREEQFNSTFRVVSVLTVVHQDWLNGKEYKCKVSNKGLPAPIEKTISKTKGQPREPQVYTLPPSREEMTKNQVSLTCLVKGFYPSDIAVEWESNGQPENNYKTTPPMLDSDGSFFLYSKLTVDKSRWQQGNVFSCSVMHEALHNHYTQKSLSLSPGKLEPPPSTVSNMATVAVLVVLGAAIVTGAVVAFVMKMRRRNTGGKGGDYALAPGSQTSDLSLPDCKVMVHDPHSLA | 42.2 | 73.5
human IgG2 anti-mouse CD40 surface displayed antibody, V266A/P271G (antibody, name in EU numbering, m1 with these Fc mutations (Eu numbering); copies: 2 + 2) light chain (with the P2A rest): DTVLTQSPALAVSPGERVTISCRASDSVSTLMHWYQQKPGQQPKLLIYLASHLESGVPARFSGSGSGTDFTLTIDPVEADDTATYYCQQSWNDPWTFGGGTKLELKRTVAAPSVFIFPPSDEQLKSGTASVVCLLNNFYPREAKVQWKVDNALQSGNSQESVTEQDSKDSTYSLSSTLTLSKADYEKHKVYACEVTHQGLSSPVTKSFNRGECGSGATNFSLLKQAGDVEENPG heavy chain: EVQLVESDGGLVQPGRSLKLPCAASGFTFSDYYMAWVRQAPTKGLEWVASISYDGSSTYYRDSVKGRFTISRDNAKSTLYLQMDSLRSEDTATYYCGRHSSYFDYWGQGVMVTVSSASTKGPSVFPLAPCSRSTSESTAALGCLVKDYFPEPVTVSWNSGALTSGVHTFPAVLQSSGLYSLSSVVTVPSSNFGTQTYTCNVDHKPSNTKVDKTVERKCCVECPPCPAPPVAGPSVFLFPPKPKDTLMISRTPEVTCVVVDASHEDGEVQFNWYVDGVEVHNAKTKPREEQFNSTFRVVSVLTVVHQDWLNGKEYKCKVSNKGLPAPIEKTISKTKGQPREPQVYTLPPSREEMTKNQVSLTCLVKGFYPSDIAVEWESNGQPENNYKTTPPMLDSDGSFFLYSKLTVDKSRWQQGNVFSCSVMHEALHNHYTQKSLSLSPGKLEPPPSTVSNMATVAVLVVLGAAIVTGAVVAFVMKMRRRNTGGKGGDYALAPGSQTSDLSLPDCKVMVHDPHSLA | 8.63 | 15
